Biological target: T1, Rat Serum Albumin (rat, UniProt P02770 25-608)
T1 construct: Bought purified serum albumin; coupled to CM5 chips for BiaCore; also called RSA; rat SA
Experiment: SPR (BiaCore)

T1 sequence (P02770 25-608 limits assumed): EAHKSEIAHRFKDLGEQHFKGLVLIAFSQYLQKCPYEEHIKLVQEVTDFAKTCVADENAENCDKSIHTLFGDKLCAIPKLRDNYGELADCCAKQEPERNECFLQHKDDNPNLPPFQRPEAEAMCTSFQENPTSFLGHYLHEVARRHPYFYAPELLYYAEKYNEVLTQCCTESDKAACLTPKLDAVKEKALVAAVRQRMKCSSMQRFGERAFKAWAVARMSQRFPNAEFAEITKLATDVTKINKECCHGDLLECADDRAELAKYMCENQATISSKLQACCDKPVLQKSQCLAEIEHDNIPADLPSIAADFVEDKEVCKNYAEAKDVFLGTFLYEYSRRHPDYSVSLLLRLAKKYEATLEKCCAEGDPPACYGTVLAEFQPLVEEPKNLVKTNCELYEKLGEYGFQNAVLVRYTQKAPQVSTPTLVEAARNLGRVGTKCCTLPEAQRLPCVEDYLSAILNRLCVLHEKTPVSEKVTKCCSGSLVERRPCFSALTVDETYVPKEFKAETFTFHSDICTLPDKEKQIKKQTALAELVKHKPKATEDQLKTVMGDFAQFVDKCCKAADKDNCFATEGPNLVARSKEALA

Binder	fold decrease in affinity against the unfused ALBUDAB [fold]
DOM7h-11-12/DOM1m-21-23 fusion DMS number 5516 (other, DOM1m-21-23 - ASTSGPS - DOM7h-11-12 - myc tag; also called DMS5516) EVQLLESGGGLVQPGGSLRLSCAASGFTFNRYSMGWLRQAPGKGLEWVSRIDSYGRGTYYEDPVKGRFSISRDNSKNTLYLQMNSLRAEDTAVYYCAKISQFGSNAFDYWGQGTQVTVSSASTSGPSDIQMTQSPSSLSASVGDRVTITCRASRPIGTMLSWYQQKPGKAPKLLILFGSRLQSGVPSRFSGSGSGTDFTLTISSLQPEDFATYYCAQAGTHPTTFGQGTKVEIKRAAAEQKLISEEDLN	2
DOM7h-11-15/DOM1m-21-23 fusion DMS number 5517 (other, DOM1m-21-23 - ASTSGPS - DOM7h-11-15 - myc tag; also called DMS5517; DOM1m21-23-DOM7h11-15) EVQLLESGGGLVQPGGSLRLSCAASGFTFNRYSMGWLRQAPGKGLEWVSRIDSYGRGTYYEDPVKGRFSISRDNSKNTLYLQMNSLRAEDTAVYYCAKISQFGSNAFDYWGQGTQVTVSSASTSGPSDIQMTQSPSSLSASVGDRVTITCRASRPIGTMLSWYQQKPGKAPKLLILAFSRLQSGVPSRFSGSGSGTDFTLTISSLQPEDFATYYCAQAGTHPTTFGQGTKVEIKRAAAEQKLISEEDLN	2

From US20170298121A1 (GlaxoSmithKline, published 2017)
